Patent publication US20250179151A1, “SPIKE FURIN CLEAVAGE IS A SARS-COV-2 TARGETING STRATEGY TO BREAK THE CHAIN OF INFECTION CYCLE” (University of Virginia Patent Foundation, priority 2022, published 2025)
“Also recorded” adds a separate entry of the source. Peptide text beside a SMILES is read from it. * marks the point of attachment. Cbz = O=C(OCc1ccccc1)*

Key:
spike S1/S2 cleavage = assay type: cell-based, SARS-CoV-2
[1] = test system: pseudoviral spike S0 and S2; assay type: cell-based, SARS-CoV-2
spike S0 = assay type: cell-based, SARS-CoV-2
furin [2] = target: T1, furin (Homo sapiens, UniProt P09958); assay type: biochemical; conditions: peptide inserted in rDR5-IgG4-Fc; 10 ng recombinant furin
T1 sequence (P09958 108-794): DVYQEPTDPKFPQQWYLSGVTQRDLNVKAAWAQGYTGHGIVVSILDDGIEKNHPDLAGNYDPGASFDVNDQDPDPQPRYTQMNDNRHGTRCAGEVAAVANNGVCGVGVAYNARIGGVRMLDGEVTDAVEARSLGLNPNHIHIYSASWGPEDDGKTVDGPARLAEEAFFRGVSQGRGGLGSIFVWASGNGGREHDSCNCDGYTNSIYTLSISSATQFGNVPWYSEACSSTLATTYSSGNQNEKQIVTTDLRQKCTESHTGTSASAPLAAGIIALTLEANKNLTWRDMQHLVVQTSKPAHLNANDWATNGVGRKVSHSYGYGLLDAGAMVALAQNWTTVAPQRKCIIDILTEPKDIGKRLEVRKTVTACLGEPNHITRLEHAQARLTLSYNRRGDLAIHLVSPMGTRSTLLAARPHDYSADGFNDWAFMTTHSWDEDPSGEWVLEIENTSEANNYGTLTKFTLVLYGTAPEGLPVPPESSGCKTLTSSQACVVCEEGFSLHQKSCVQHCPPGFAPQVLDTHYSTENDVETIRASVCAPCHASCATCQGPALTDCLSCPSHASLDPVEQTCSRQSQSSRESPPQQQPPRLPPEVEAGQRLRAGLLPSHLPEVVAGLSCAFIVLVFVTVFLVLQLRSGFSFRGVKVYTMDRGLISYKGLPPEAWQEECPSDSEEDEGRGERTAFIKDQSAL

293-ACE2 cells = assay type: cell-based; conditions: spike transfected 293-ACE2 cells, 24 hours
spike cleavage at S1/S2 = assay type: cell-based, SARS-CoV-2
[3] = target: T2, IgG4-Fc tagged rFOLR1 antigen (UniProt P15328 25-233); assay: ELISA, IgG4-Fc tagged rFOLR1 coated, detection with anti-IgG1-Fc HRP
T2 construct: extracellular domain; also called recombinant IgG4-Fc FOLR1
T2 sequence (P15328 25-233 limits assumed): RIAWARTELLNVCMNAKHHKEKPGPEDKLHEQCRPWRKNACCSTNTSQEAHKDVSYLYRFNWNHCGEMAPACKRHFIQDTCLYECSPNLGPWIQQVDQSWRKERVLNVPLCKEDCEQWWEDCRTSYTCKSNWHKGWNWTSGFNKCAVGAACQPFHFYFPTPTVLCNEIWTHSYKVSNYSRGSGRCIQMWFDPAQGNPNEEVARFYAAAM

furin [4] = target: T1, furin; assay: Furin protease activity assay (fluorogenic substrate); assay type: biochemical; conditions: particularly at higher doses; compared with farletuzumab-cFuG1
Protocol: (§1) FIGS. 2A-2C. Furin inhibitory function and flexibility of Fc-extended FuG1 peptide strategy. (FIG. 2A) The binding kinetics of immobilized biotinylated furin against indicated farletuzumab-FuG1, farletuzumab-cFuG1, and Farletuzumab-IgG1 were measured using BLI. (FIGS. 2B and 2C) FuG1 and cFuG1 antibodies were tested using a competitive inhibitory furin assay kit, which measures fluorescent signal as an indicator of the protease activity kinetics.
Furin protease activity assay. Different concentrations of farletuzumab-FuGi, farletuzumab-cFuGi (25-250 ng) or furin assay buffer (negative control) were pre-incubated with 25 ng of furin (50 μl, 0.5 ng/μl in furin assay buffer) in a total reaction volume of 100 μl for 10 minutes at room temperature. […] The fluorescence intensity of the reaction mixture was monitored at excitation wavelength of 380 nm and detection of emission at wavelength 460 nm using 96 well microplate reader (BioTek Instruments Inc, USA). […] For kinetic study, fluorescence was measured immediately after adding the protease substrate and data was recorded every 1 minute for 15 min at Ex/Em=380 nm/460 nm.
To confirm furin binding and competing function, farletuzumab-FuG1 and farletuzumab-cFuG1 were expressed in the presence of furin inhibitors. Purified antibodies were analyzed for their Fc-extended peptide binding to biotinylated furin using BLI. […]

[5] = test system: 293-ACE2 and RFP-stable HCC-1806 cells; assay: Syncytia in Spike-EGFP transfected co-culture of 293-ACE2 and HCC-1806 cells; assay type: cell-based; conditions: co-cultures, 100 μg antibody
furin [6] = target: T1, furin; assay: BLI binding kinetics against immobilized biotinylated furin; conditions: compared to cFuG1
Protocol: as §1
Binding studies by BioLayer Interferometry (BLI). Binding measurements were performed using Bio-Layer Interferometry on FortéBio Red Octet 96 instrument (Pall) as described in Shivange et al., 2018. Biotin-Streptavidin based sensors were employed for the studies. Recombinant Fc linked DR5 variants were biotinylated using EZ-Link Sulfo-NHS—SS-Biotin (Thermo Scientific 21331) following the manufacturer's instructions. Unreacted Sulfo-NHS—SS-Biotin reaction was quenched by 50 mM Tris-Cl pH 7.4 and removed via dialyzing against PBS. For binding analysis biotinylated antigen (1 μg/mL) were immobilized on streptavidin (SA) biosensors (Pall) for 300 sec to ensure saturation. Associate and dissociation reactions were set in 96-well microplates filled with 200 μL of unbiotinylated DR5 agonist for 900 seconds. All interactions were conducted at 37° C. in PBS buffer containing 2 mg/ml BSA. These binding observations were also confirmed by biotinylating the agonist antibodies and probed against unbiotinylated DR5-Fc variants. Kinetic parameters (KON and KOFF) and affinities (KD) were analyzed using Octet data analysis software, version 9.0 (Pall).
To confirm furin binding and competing function, farletuzumab-FuG1 and farletuzumab-cFuG1 were expressed in the presence of furin inhibitors. Purified antibodies were analyzed for their Fc-extended peptide binding to biotinylated furin using BLI. […] The latter indicated a potential higher competitive furin occupancy time of FuG1 peptide with the increased antibody concentration (Hoare et al., 2020).

spike S0 and S2 = assay type: cell-based, SARS-CoV-2

In the case of `C[C@H]1CCC/C=C/[C@@H]2C[C@H](O)C[C@H]2[C@H](O)/C=C/C(=O)O1` [Bfa, Brefeldin-A], the “spike S1/S2 cleavage” value (spike S1/S2 cleavage) is reported as “completely inhibited”.

With `CC(C)C[C@@H](C=O)NC(=O)[C@H](CC(C)C)NC(=O)[C@H](CC(C)C)NC(=O)OCc1ccccc1` [MG132] (Cbz-Leu-Leu-Leu-aldehyde) the “pseudoviral S2 fragment generation” value [1] was “remained inhibited”, the “pseudoviral spike S0 destabilization” value [1] was “rescued spike S0 destabilization” and the “furin processing of WT and ΔRRAR spike” value (spike S0) was “did not interfere”. For the same molecule, the “rescue of spike S0 loss” value (spike S0) was “partial rescue of spike S0 loss” and the “total spike S0 signal” value (spike S0) was “at least two-fold higher; also recorded: significantly increased”.

For EGGGSGRERKARGGCPGS [FuG1 peptide], the “cleavage by recombinant furin in vitro” value (furin [2]) was “not cleaved”.

B1: 6.29-IgG1: ACE-2-RBD neutralizing antibody (Rogers et al., 2020); SEQ ID NOs: 11 and 15 (protein)
light: DIQLTQSPSSLSASVGDRVTITCRASQTASSYLNWYQQKPGKAPNLLIYAASSLQSGVPSRFSGSGSVTDFTLTISSLQPEDFATYYCQQSYSTPPTFGQGTKVDIKRTVAAPSVFIFPPSDEQLKSGTASVVCLLNNFYPREAKVQWKVDNALQSGNSQESVTEQDSKDSTYSLSSTLTLSKADYEKHKVYACEVTHQGLSSPVTKSFNRGEC
heavy: QVQLVQSGSELKKPGASVKVSCKASGYTFATYALNWVRQAPGQGLEWMGWVNTNTGSPTYAQGFTGRFVFSFDTSVSTAYLQIRTLKAEDTAVYYCAVYYYDSGSPGWFDPWGQGTLVTVSSASTKGPSVFPLAPSSKSTSGGTAALGCLVKDYFPEPVTVSWNSGALTSGVHTFPAVLQSSGLYSLSSVVTVPSSSLGTQTYICNVNHKPSNTKVDKKVEPKSCDKTHTCPPCPAPEAAGGPSVFLFPPKPKDTLMISRTPEVTCVVVDVSHEDPEVKFNWYVDGVEVHNAKTKPREEQYNSTYRVVSVLTVLHQDWLNGKEYKCKVSNKALPAPIEKTISKAKGQPREPQVYTLPPSREEMTKNQVSLTCLVKGFYPSDIAVEWESNGQPENNYKTTPPVLDSDGSFFLYSKLTVDKSRWQQGNVFSCSVMHEALHNHYTQKSLSLSLGK
In the case of B1, the syncytia blockade (293-ACE2 cells) is reported as “significantly more effective; also recorded: significantly effective” and the “inhibition of spike cleavage at S1/S2” value (spike cleavage at S1/S2) is reported as “non-inhibitory”.

B2: farletuzumab-FuG1 (antibody)
heavy: EVQLVESGGGVVQPGRSLRLSCSASGFTFSGYGLSWVRQAPGKGLEWVAMISSGGSYTYYADSVKGRFAISRDNAKNTLFLQMDSLRPEDTGVYFCARHGDDPAWFAYWGQGTPVTVSSASTKGPSVFPLAPSSKSTSGGTAALGCLVKDYFPEPVTVSWNSGALTSGVHTFPAVLQSSGLYSLSSVVTVPSSSLGTQTYICNVNHKPSNTKVDKKVEPKSCDKTHTCPPCPAPEAAGGPSVFLFPPKPKDTLMISRTPEVTCVVVDVSHEDPEVKFNWYVDGVEVHNAKTKPREEQYNSTYRVVSVLTVLHQDWLNGKEYKCKVSNKALPAPIEKTISKAKGQPREPQVYTLPPSREEMTKNQVSLTCLVKGFYPSDIAVEWESNGQPENNYKTTPPVLDSDGSFFLYSKLTVDKSRWQQGNVFSCSVMHEALHNHYTQKSLSLSLPGKEGGGSGRERKARGGCPGS
light: DIQLTQSPSSLSASVGDRVTITCSVSSSISSNNLHWYQQKPGKAPKPWIYGTSNLASGVPSRFSGSGSGTDYTFTISSLQPEDIATYYCQQWSSYPYMYTFGQGTKVEIKRTVAAPSVFIFPPSDEQLKSGTASVVCLLNNFYPREAKVQWKVDNALQSGNSQESVTEQDSKDSTYSLSSTLTLSKADYEKHKVYACEVTHQGLSSPVTKSFNRGEC
notes: also called Farle-FuG1; Farletuzumab-FuG1 antibody
B2: binds [3].

B3: farletuzumab-FuG1: anti-FOLR1 farletuzumab with FuG1 Fc-extended peptide (SEQ ID NO: 44) (antibody)
heavy: EVQLVESGGGVVQPGRSLRLSCSASGFTFSGYGLSWVRQAPGKGLEWVAMISSGGSYTYYADSVKGRFAISRDNAKNTLFLQMDSLRPEDTGVYFCARHGDDPAWFAYWGQGTPVTVSSASTKGPSVFPLAPSSKSTSGGTAALGCLVKDYFPEPVTVSWNSGALTSGVHTFPAVLQSSGLYSLSSVVTVPSSSLGTQTYICNVNHKPSNTKVDKKVEPKSCDKTHTCPPCPAPEAAGGPSVFLFPPKPKDTLMISRTPEVTCVVVDVSHEDPEVKFNWYVDGVEVHNAKTKPREEQYNSTYRVVSVLTVLHQDWLNGKEYKCKVSNKALPAPIEKTISKAKGQPREPQVYTLPPSREEMTKNQVSLTCLVKGFYPSDIAVEWESNGQPENNYKTTPPVLDSDGSFFLYSKLTVDKSRWQQGNVFSCSVMHEALHNHYTQKSLSLSLPGKEGGGSGRERKARGGCPGS
light: DIQLTQSPSSLSASVGDRVTITCSVSSSISSNNLHWYQQKPGKAPKPWIYGTSNLASGVPSRFSGSGSGTDYTFTISSLQPEDIATYYCQQWSSYPYMYTFGQGTKVEIKRTVAAPSVFIFPPSDEQLKSGTASVVCLLNNFYPREAKVQWKVDNALQSGNSQESVTEQDSKDSTYSLSSTLTLSKADYEKHKVYACEVTHQGLSSPVTKSFNRGEC
B3 was tested, and the “inhibition of furin protease activity” value (furin [4]) was “significant inhibition”, the syncytia load reduced [5] was about 30% and the “furin association rate (KON)” value (furin [6]) was “lower”. For the same molecule, the “furin binding affinity (KD)” value (furin [6]) was “lower”, the “furin dissociation rate (KOFF), fold reduced” value (furin [6]) was about 10 fold and the “S0 and S2 in co-culture lysates” value (spike S0 and S2) was “only partially reduced S2 conversion”.
